B1: monoclonal antibody ‘F6’ secreted by clone BK6A2F6 (antibody)
heavy: EVQLQQSGPELVKPGASVKISCKASGYSFTGYFMNWVKQSHGKSLEWIGRINPYNGDTFYNQKFKGKATLTVDKSSSTAHMELLSLTSEDSAVYYCGSYYYGDYFDYWGQGTTLTVSSAKTTPPSVYPLAPGSAAQTNSMVTLGCLVKGYFPEPVTVTWNSGSLSSGVHTFPAVLQSDLYTLSSSVTVPSSTWPSETVTCNVAHPASSTKVDKKIVPRDCGCKPCICTVPEVSSVFIFPPKPKDVLTITLTPKVTCVVVDISKDDPEVQFSWFVDDVEVHTAQTQPREEQFNSTFRSVSELPIMHQDWLNGKEFKCRVNSAAFPAPIEKTISKTKGRPKAPQVYTIPPPKEQMAKDKVSLTCMITDFFPEDITVEWQWNGQPAENYKNTQPIMDTDGSYFVYSKLNVQKSNWEAGNTFTCSVLHEGLHNHHTEKSLSHSPGK
light: […]
B2: monoclonal antibody ‘H6’ secreted by clone BK6A2H6 (antibody, V domains shown)
VH: EVQLQQSGPELVKPGASVKISCKASGYSFTGYFMNWVKQSHGKSLEWIGRINPYNGDTFYNQKFKGKATLTVDKSSSTAHMELLSLTSEDSAVYYCGSYYYGDYFDYWGQGTTLTVSS
VL: SIVMTQIPKFLLVSEGDRVTITCKASQSVSNDVAWYQQKSGQSPKLLIYYASNRYTGVPDRFTGSGYGTDFTFTISTVQAEDLAVYFCQQDYSSPLTFGAGTKLELKR
B3: monoclonal antibody ‘18A2’ derived from hybridoma 18A2 (antibody, V domains shown)
VH: DVQLQESGPGLVKPSQSLSLTCSVTGYSITSGYYWNWIRQFPGNKLEWMGYISYDGSNNYNPSLKNRISITRDTSKNQFFLKLNSVTTEDTATYYCARWEGTTDYWGQGTTLTVSS
VL: not shown
notes: Mouse hybridoma antibody

Columns and labels:
[1] = target: T1, virus-like particles (VLPs) of BK polyomavirus VP-1 protein, serotype Ib2 (BK virus (BKPyV), serotype Ib2, PA …, UniProt P03088 1-362); assay: ELISA on coated VLP; supernatant 1/1 280
T1 construct: native VLPs; also the immunogen; also called VLP Ib2; BK Ib2
T1 chain: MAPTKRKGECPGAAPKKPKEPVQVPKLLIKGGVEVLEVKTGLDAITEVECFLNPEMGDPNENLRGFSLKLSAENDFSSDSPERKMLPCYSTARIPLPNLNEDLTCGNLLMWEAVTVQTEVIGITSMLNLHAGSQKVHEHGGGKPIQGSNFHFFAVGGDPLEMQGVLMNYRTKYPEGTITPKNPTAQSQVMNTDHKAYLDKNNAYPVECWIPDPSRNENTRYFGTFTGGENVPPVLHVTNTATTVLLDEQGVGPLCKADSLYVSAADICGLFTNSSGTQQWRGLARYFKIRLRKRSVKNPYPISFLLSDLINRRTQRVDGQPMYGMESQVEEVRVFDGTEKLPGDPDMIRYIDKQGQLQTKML
Method: (§1) To do this, the VLPs produced were deposited at a concentration of 1 μg/mL in PBS and incubated overnight at +4° C. The wells were then blocked for 1 h at +37° C. with a PBS/FCS (phosphate-buffered saline/fetal calf serum) mixture. After dilution in a dilution buffer containing FCS, PBS and Tween® 20, the various hybridoma culture supernatants were added for 1 h at +37° C. The wells were washed four times in a row with Wash Buffer and a secondary anti-mouse antibody coupled to peroxidase was added to the 1:2000 dilution for 1 h at +37° C. The wells were washed four more times and the substrate (OPD (ortho phenylene diamine)+H₂O₂) was added for 30 min at room temperature. A stop solution (H₂SO₄ 4N) was then added and each well was read by measuring the absorbance at 492 nm with a spectrophotometer. The value obtained for the average of the control wells (PBS in the first step) is subtracted from the optical density values obtained for each well.

[2] = target: T2, virus-like particles (VLPs) of BK polyomavirus VP-1 protein, serotype Ia (BK virus (BKPyV), serotype Ia, UniProt P03088 1-361); assay: ELISA on coated VLP; supernatant 1/1 280
T2 construct: self-assembled native VLPs coated on ELISA plates; also called VLP Ia; BKV VP-1, serotype Ia
T2 chain: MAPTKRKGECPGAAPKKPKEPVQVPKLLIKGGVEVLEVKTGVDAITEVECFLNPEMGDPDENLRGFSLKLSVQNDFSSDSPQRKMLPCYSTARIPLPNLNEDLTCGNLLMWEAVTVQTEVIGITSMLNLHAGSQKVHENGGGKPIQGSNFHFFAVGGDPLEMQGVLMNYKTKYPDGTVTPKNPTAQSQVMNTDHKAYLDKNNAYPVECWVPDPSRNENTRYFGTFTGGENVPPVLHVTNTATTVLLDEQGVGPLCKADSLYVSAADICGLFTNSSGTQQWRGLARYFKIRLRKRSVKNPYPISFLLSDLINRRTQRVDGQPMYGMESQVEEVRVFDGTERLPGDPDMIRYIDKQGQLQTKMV
Method: as §1

[3] = target: T3, virus-like particles (VLPs) of BK polyomavirus VP-1 protein, serotype IV (BK virus (BKPyV), serotype IV, UniProt P14996 1-362); assay: ELISA on coated VLP; supernatant 1/1 280
T3 construct: native VLPs; also called VLP IV
T3 chain: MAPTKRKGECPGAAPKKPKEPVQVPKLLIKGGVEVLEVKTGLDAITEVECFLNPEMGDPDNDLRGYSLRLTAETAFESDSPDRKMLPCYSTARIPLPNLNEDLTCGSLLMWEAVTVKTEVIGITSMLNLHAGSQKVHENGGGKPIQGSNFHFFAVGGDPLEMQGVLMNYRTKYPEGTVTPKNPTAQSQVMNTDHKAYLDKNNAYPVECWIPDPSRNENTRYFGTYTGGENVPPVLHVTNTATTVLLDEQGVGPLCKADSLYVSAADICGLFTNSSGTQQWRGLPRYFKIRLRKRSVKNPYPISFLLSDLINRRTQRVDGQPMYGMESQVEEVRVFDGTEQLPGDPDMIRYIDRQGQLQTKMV
Method: as §1

[4] = target: T4, virus-like particles (VLPs) of BK polyomavirus VP-1 protein, serotype II (BK virus (BKPyV), serotype II, UniProt P14996 1-362); assay: ELISA on coated VLP; supernatant 1/1 280
T4 construct: native VLPs; also called VLP II
T4 chain: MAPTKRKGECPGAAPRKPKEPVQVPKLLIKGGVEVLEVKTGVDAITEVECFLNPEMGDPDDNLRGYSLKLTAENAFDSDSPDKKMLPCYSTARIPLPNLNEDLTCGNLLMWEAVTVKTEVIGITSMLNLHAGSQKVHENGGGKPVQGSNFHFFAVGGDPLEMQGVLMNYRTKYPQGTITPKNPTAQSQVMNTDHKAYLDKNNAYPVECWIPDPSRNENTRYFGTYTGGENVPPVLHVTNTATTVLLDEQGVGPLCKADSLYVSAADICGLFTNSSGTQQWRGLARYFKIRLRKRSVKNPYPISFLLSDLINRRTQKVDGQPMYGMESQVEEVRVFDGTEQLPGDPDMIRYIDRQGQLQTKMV
Method: as §1

[5] = target: T1, virus-like particles (VLPs) of BK …; assay: ELISA on not denatured VLP (threshold OD>0.5)
Method: (§2) The wells were then blocked for 1 hour at +37° C. with a PBS/SVF mixture. After dilution in a dilution buffer containing SVF, PBS and Tween® 20, the individual culture supernatants or purified antibodies were added for 1 hour at +37° C. The wells were washed four times in a row with Wash Buffer and a secondary anti-mouse peroxidase antibody was added to the 1/2000 dilution for 1 hour at +37° C. The wells were washed again four times in a row and the substrate was added for 30 minutes at room temperature. A stop solution was added and then each well was read by measuring the absorbance at 492 nm with a spectrophotometer. The value obtained for the average of the control wells (PBS in the first step) was subtracted from the optical density values obtained for each well (detection threshold: OD>0.5).

[6] = target: T2, virus-like particles (VLPs) of BK …; assay: ELISA on not denatured VLP (threshold OD>0.5)
Method: as §2

[7] = target: T3, virus-like particles (VLPs) of BK …; assay: ELISA on not denatured VLP (threshold OD>0.5)
Method: as §2

[8] = target: T4, virus-like particles (VLPs) of BK …; assay: ELISA on not denatured VLP (threshold OD>0.5)
Method: as §2

[9] = target: T1, virus-like particles (VLPs) of BK …; assay: ELISA on coated VLP; supernatant 1/10 240
Method: as §1

[10] = target: T2, virus-like particles (VLPs) of BK …; assay: ELISA on coated VLP; supernatant 1/10 240
Method: as §1

[11] = target: T3, virus-like particles (VLPs) of BK …; assay: ELISA on coated VLP; supernatant 1/10 240
Method: as §1

[12] = target: T4, virus-like particles (VLPs) of BK …; assay: ELISA on coated VLP; supernatant 1/10 240
Method: as §1

Binder | OD 492 nm [1] | OD 492 nm [2] | OD 492 nm [3] | OD 492 nm [4] | OD 492 nm [5] | OD 492 nm [6] | OD 492 nm [7] | OD 492 nm [8] | OD 492 nm [9] | OD 492 nm [10] | OD 492 nm [11] | OD 492 nm [12]
B1 | 0.11 OD | 2.11 OD | 2.04 OD | 0.09 OD | 2.7 OD | 3.94 OD | 0.788 OD | 3 OD | 0.08 OD | 0.19 OD | 0.48 OD | 0.08 OD
B2 | 0.14 OD | 0.81 OD | 0.91 OD | 0.08 OD | – | – | – | – | 0.06 OD | 0.22 OD | 0.17 OD | 0.06 OD
B3 | – | – | – | – | 0.565 OD | 3.84 OD | 2.99 OD | 1.71 OD | – | – | – | –
